Measured values taken from patent US20130288389A1.

Legend:
Assay in all cases: cell-based or functional assay
[1] = target: PrP^Sc of 263K scrapie-infected Syrian golden hamsters (Syrian golden hamster) (UniProt P04273)
[2] = target: human sporadic CJD (sCJD) brain homogenate PrP-res (human) (UniProt P04156)
[3] = target: sheep ARQ scrapie brain homogenate PrP-res (sheep) (UniProt P23907)

monoclonal antibody 15B3
IP-RT-QuIC (ThT fluorescence): lowest brain dilution detected in human plasma (dilution of brain tissue) [1]: 1e-10 | IP-RTQ speed and sensitivity with higher 15B3 content on beads (fold higher 15B3 on beads) [1]: 12 | eQuIC: lowest PrP-res amount detected in 0.5 ml human cerebrospinal fluid [2]: 10 ag | eQuIC: lowest PrP-res amount detected in 0.5 ml human plasma [2]: 10 ag | eQuIC ("20×" 15B3 beads): lowest PrP-res amount detected in 0.5 ml plasma [3]: 100 ag
